Assay results taken from patent US20190263934A1.
pKd: −log10 of the molar value.

Columns and labels:
[1] = target: biotinylated human FcRn (hFcRn; p51 subunit residues 24-297 with C-terminal Avi-tag, β2-m residues 21-119) (human) (UniProt P55899); experiment: Biacore SPR, pH 7.4, steady state, 1000 nM antibody
[2] = target: biotinylated human FcRn (hFcRn; p51 subunit residues 24-297 with C-terminal Avi-tag, β2-m residues 21-119) (human) (UniProt P55899); experiment: Biacore SPR; pH 6.0 affinity (M^-1) over pH 7.4 steady state RU
[3] = target: biotinylated human FcRn (hFcRn; p51 subunit residues 24-297 with C-terminal Avi-tag, β2-m residues 21-119) (human) (UniProt P55899); experiment: Biacore SPR, pH 6.0, apparent affinity
[4] = target: biotinylated human FcRn (hFcRn; p51 subunit residues 24-297 with C-terminal Avi-tag, β2-m residues 21-119) (human) (UniProt P55899); experiment: Biacore SPR; second ratio column (inverse of c7)
rFcRn (rat) [5] = target: rFcRn (rat) (UniProt P13599); experiment: SPR Biacore, pH 6.0
[6] = target: biotinylated hFcRn (human) (UniProt P55899); experiment: SPR Biacore, pH 6.0
rFcRn (rat) [7] = target: rFcRn (rat) (UniProt P13599); experiment: SPR Biacore, pH 7.4
[8] = target: biotinylated hFcRn (human) (UniProt P55899); experiment: SPR Biacore, pH 7.4

Chain of rFcRn (rat) (P13599 23-298 limits assumed, form in doubt, chain 1 of 2): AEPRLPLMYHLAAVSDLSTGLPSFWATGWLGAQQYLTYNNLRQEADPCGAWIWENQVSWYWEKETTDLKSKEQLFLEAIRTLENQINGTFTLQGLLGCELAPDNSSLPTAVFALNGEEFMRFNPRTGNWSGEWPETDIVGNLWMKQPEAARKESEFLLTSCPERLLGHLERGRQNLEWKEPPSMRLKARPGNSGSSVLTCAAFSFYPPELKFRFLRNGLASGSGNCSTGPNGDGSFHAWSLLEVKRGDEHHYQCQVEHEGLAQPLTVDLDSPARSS
Chain of rFcRn (rat) (P07151 21-119 limits assumed, form in doubt, chain 2 of 2, further chain): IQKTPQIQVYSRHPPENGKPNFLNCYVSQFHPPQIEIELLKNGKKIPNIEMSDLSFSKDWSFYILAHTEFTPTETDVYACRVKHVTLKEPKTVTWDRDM

Row | Steady State Binding, pH 7.4 (RU) [1] [RU] | Ratio (pH 6.0/pH 7.4) [2] | Ka [3] [M⁻¹] | Ratio (pH 7.4/pH 6.0) [4] | Substance | also measured
1 | 13.9 | 40400 | 562000 | – | mAb1 AAA variant (T307A/E380A/N434A) (antibody) | Ratio (pH 6.0/pH 7.4) [4]: 2.47e-05
2 | 18.3 | 201000 | 3.68e+06 | – | mAb1 LS variant (M428L/N434S) (antibody) | Ratio (pH 6.0/pH 7.4) [4]: 4.97e-06
3 | – | – | – | – | mAb1 M252Y/N434F (antibody) | pKd (rFcRn (rat) [5]): 9.54; koff (rFcRn (rat) [5]): 0.00012 s⁻¹; kon (rFcRn (rat) [5]): 403000 M⁻¹ s⁻¹; pKd [6]: 7.74; koff [6]: 0.023 s⁻¹; kon [6]: 1.27e+06 M⁻¹ s⁻¹; Steady State RU (rFcRn (rat) [7]): 79.3 RU; Steady State RU [8]: 43.8 RU
4 | – | – | – | – | mAb1 M252Y/N434Y (antibody) | pKd (rFcRn (rat) [5]): 9.59; koff (rFcRn (rat) [5]): 0.00014 s⁻¹; kon (rFcRn (rat) [5]): 540000 M⁻¹ s⁻¹; pKd [6]: 8.08; koff [6]: 0.0171 s⁻¹; kon [6]: 2.06e+06 M⁻¹ s⁻¹; Steady State RU (rFcRn (rat) [7]): 67.9 RU; Steady State RU [8]: 54.1 RU
5 | – | – | – | – | mAb1 M252Y/T256E (antibody) | pKd (rFcRn (rat) [5]): 8.07; koff (rFcRn (rat) [5]): 0.00273 s⁻¹; kon (rFcRn (rat) [5]): 324000 M⁻¹ s⁻¹; pKd [6]: 6.89; koff [6]: 0.0757 s⁻¹; kon [6]: 592000 M⁻¹ s⁻¹; Steady State RU (rFcRn (rat) [7]): 55.1 RU; Steady State RU [8]: 9.8 RU
6 | – | – | – | – | mAb1 M252Y/T307Q (antibody) | pKd (rFcRn (rat) [5]): 8.39; koff (rFcRn (rat) [5]): 0.00105 s⁻¹; kon (rFcRn (rat) [5]): 255000 M⁻¹ s⁻¹; pKd [6]: 6.56; koff [6]: 0.096 s⁻¹; kon [6]: 345000 M⁻¹ s⁻¹; Steady State RU (rFcRn (rat) [7]): 49.2 RU; Steady State RU [8]: 10.6 RU
7 | – | – | – | – | mAb1 M252Y/T307W (antibody) | pKd (rFcRn (rat) [5]): 8.28; koff (rFcRn (rat) [5]): 0.00109 s⁻¹; kon (rFcRn (rat) [5]): 208000 M⁻¹ s⁻¹; pKd [6]: 6.93; koff [6]: 0.057 s⁻¹; kon [6]: 483000 M⁻¹ s⁻¹; Steady State RU (rFcRn (rat) [7]): 66.1 RU; Steady State RU [8]: 15.9 RU
8 | 55.3 | 120000 | 6.62e+06 | 8.35e-06 | mAb1 MDQF variant (T256D/T307Q/N434F) (antibody) | –
9 | 10.7 | 403000 | 4.31e+06 | – | mAb1 MDQN variant (T256D/T307Q) (antibody) | Ratio (pH 6.0/pH 7.4) [4]: 2.48e-06
10 | 49.4 | 747000 | 3.69e+07 | 1.34e-06 | mAb1 MDQY variant (T256D/T307Q/N434Y) (antibody) | –
11 | 29.2 | 1.14e+06 | 3.34e+07 | – | mAb1 MDTF variant (T256D/N434F) (antibody) | Ratio (pH 6.0/pH 7.4) [4]: 8.74e-07
12 | 37.1 | 1.73e+06 | 6.41e+07 | – | mAb1 MDTY variant (T256D/N434Y) (antibody) | Ratio (pH 6.0/pH 7.4) [4]: 5.79e-07
13 | 47.1 | 597000 | 2.81e+07 | 1.68e-06 | mAb1 MDWF variant (T256D/T307W/N434F) (antibody) | –
14 | 12.2 | 485000 | 5.92e+06 | – | mAb1 MDWN variant (T256D/T307W) (antibody) | Ratio (pH 6.0/pH 7.4) [4]: 2.06e-06
15 | – | – | 142000 | – | mAb1 MEQF variant (T256E/T307Q/N434F) (antibody) | –
16 | – | – | 2e+06 | – | mAb1 MEQN variant (T256E/T307Q) (antibody) | –
17 | 38.6 | 617000 | 2.38e+07 | 1.62e-06 | mAb1 MEQY variant (T256E/T307Q/N434Y) (antibody) | –
18 | 23.3 | 549000 | 1.28e+07 | – | mAb1 METF variant (T256E/N434F) (antibody) | Ratio (pH 6.0/pH 7.4) [4]: 1.82e-06
19 | 26.8 | 597000 | 1.6e+07 | – | mAb1 METY variant (T256E/N434Y) (antibody) | Ratio (pH 6.0/pH 7.4) [4]: 1.68e-06
20 | 41.9 | 1.34e+06 | 5.62e+07 | 7.46e-07 | mAb1 MEWF variant (T256E/T307W/N434F) (antibody) | –
21 | – | – | 3.1e+06 | – | mAb1 MEWN variant (T256E/T307W) (antibody) | –
22 | 46.6 | 1.51e+06 | 7.04e+07 | 6.62e-07 | mAb1 MEWY variant (T256E/T307W/N434Y) (antibody) | –
23 | 34.2 | 681000 | 2.33e+07 | – | mAb1 MTQF variant (T307Q/N434F) (antibody) | Ratio (pH 6.0/pH 7.4) [4]: 1.47e-06
24 | 38.4 | 805000 | 3.09e+07 | – | mAb1 MTQY variant (T307Q/N434Y) (antibody) | Ratio (pH 6.0/pH 7.4) [4]: 1.24e-06

Row | Steady State Binding, pH 7.4 (RU) [1] [RU] | Ratio (pH 6.0/pH 7.4) [2] | Ka [3] [M⁻¹] | Ratio (pH 7.4/pH 6.0) [4] | Substance | also measured
25 | 30.5 | 859000 | 2.62e+07 | – | mAb1 MTWF variant (T307W/N434F) (antibody) | Ratio (pH 6.0/pH 7.4) [4]: 1.16e-06
26 | 37.2 | 1.25e+06 | 4.65e+07 | – | mAb1 MTWY variant (T307W/N434Y) (antibody) | Ratio (pH 6.0/pH 7.4) [4]: 8e-07
27 | – | – | – | – | mAb1 T256D/N434F (antibody) | pKd (rFcRn (rat) [5]): 8.75; koff (rFcRn (rat) [5]): 0.00039 s⁻¹; kon (rFcRn (rat) [5]): 218000 M⁻¹ s⁻¹; pKd [6]: 7.52; koff [6]: 0.029 s⁻¹; kon [6]: 968000 M⁻¹ s⁻¹; Steady State RU (rFcRn (rat) [7]): 63 RU; Steady State RU [8]: 29.2 RU
28 | – | – | – | – | mAb1 T256D/N434Y (antibody) | pKd (rFcRn (rat) [5]): 9.22; koff (rFcRn (rat) [5]): 0.00025 s⁻¹; kon (rFcRn (rat) [5]): 413000 M⁻¹ s⁻¹; pKd [6]: 7.81; koff [6]: 0.0285 s⁻¹; kon [6]: 1.83e+06 M⁻¹ s⁻¹; Steady State RU (rFcRn (rat) [7]): 71.6 RU; Steady State RU [8]: 37.1 RU
29 | – | – | – | – | mAb1 T256E/N434F (antibody) | pKd (rFcRn (rat) [5]): 8.12; koff (rFcRn (rat) [5]): 0.00081 s⁻¹; kon (rFcRn (rat) [5]): 108000 M⁻¹ s⁻¹; pKd [6]: 7.11; koff [6]: 0.0419 s⁻¹; kon [6]: 536000 M⁻¹ s⁻¹; Steady State RU (rFcRn (rat) [7]): 59 RU; Steady State RU [8]: 23.3 RU
30 | – | – | – | – | mAb1 T256E/N434Y (antibody) | pKd (rFcRn (rat) [5]): 8.11; koff (rFcRn (rat) [5]): 0.00098 s⁻¹; kon (rFcRn (rat) [5]): 127000 M⁻¹ s⁻¹; pKd [6]: 7.20; koff [6]: 0.0393 s⁻¹; kon [6]: 628000 M⁻¹ s⁻¹; Steady State RU (rFcRn (rat) [7]): 62.2 RU; Steady State RU [8]: 26.8 RU
31 | – | – | – | – | mAb1 T256E/T307Q (antibody) | pKd (rFcRn (rat) [5]): 7.97; pKd [6]: 6.30; Steady State RU (rFcRn (rat) [7]): 23.4 RU
32 | – | – | – | – | mAb1 T256E/T307W (antibody) | pKd (rFcRn (rat) [5]): 7.97; pKd [6]: 6.49; Steady State RU (rFcRn (rat) [7]): 33 RU
33 | – | – | – | – | mAb1 T307Q/N434F (antibody) | pKd (rFcRn (rat) [5]): 8.41; koff (rFcRn (rat) [5]): 0.0004 s⁻¹; kon (rFcRn (rat) [5]): 104000 M⁻¹ s⁻¹; pKd [6]: 7.37; koff [6]: 0.0246 s⁻¹; kon [6]: 574000 M⁻¹ s⁻¹; Steady State RU (rFcRn (rat) [7]): 62.5 RU; Steady State RU [8]: 34.2 RU
34 | 19.8 | 439000 | 8.7e+06 | 2.28e-06 | mAb1 YDQN variant (M252Y/T256D/T307Q) (antibody) | –
35 | 57.7 | 513000 | 2.96e+07 | 1.95e-06 | mAb1 YDTF variant (M252Y/T256D/N434F) (antibody) | –
36 | 9.7 | 1.1e+06 | 1.07e+07 | – | mAb1 YDTN variant (M252Y/T256D) (antibody) | Ratio (pH 6.0/pH 7.4) [4]: 9.07e-07
37 | 25.9 | 390000 | 1.01e+07 | 2.56e-06 | mAb1 YDWN variant (M252Y/T256D/T307W) (antibody) | –
38 | 15.2 | 302000 | 4.59e+06 | 3.31e-06 | mAb1 YEQN variant (M252Y/T256E/T307Q) (antibody) | –
39 | 9.8 | 797000 | 7.81e+06 | 1.25e-06 | mAb1 YETN variant (M252Y/T256E) (antibody) | –
40 | 22.6 | 1.48e+06 | 3.34e+07 | 6.77e-07 | mAb1 YETY variant (M252Y/T256E/N434Y) (antibody) | –
41 | 69.6 | 92100 | 6.41e+06 | 1.09e-05 | mAb1 YEWN variant (M252Y/T256E/T307W) (antibody) | –
42 | 13.2 | 221000 | 2.92e+06 | – | mAb1 YTE variant (M252Y/S254T/T256E) (antibody) | Ratio (pH 6.0/pH 7.4) [4]: 4.52e-06
43 | 59.9 | 943000 | 5.65e+07 | 1.06e-06 | mAb1 YTQF variant (M252Y/T307Q/N434F) (antibody) | –
44 | 10.6 | 340000 | 3.6e+06 | – | mAb1 YTQN variant (M252Y/T307Q) (antibody) | Ratio (pH 7.4 steady state RU / pH 6.0 affinity) [4]: 2.94e-06
45 | 71.5 | 885000 | 6.33e+07 | 1.13e-06 | mAb1 YTQY variant (M252Y/T307Q/N434Y) (antibody) | –
46 | 43.8 | 1.27e+06 | 5.56e+07 | 7.88e-07 | mAb1 YTTF variant (M252Y/N434F) (antibody) | –
47 | 62.6 | 1.04e+06 | 6.54e+07 | – | mAb1 YTWF variant (M252Y/T307W/N434F) (antibody) | Ratio (pH 7.4 steady-state RU / pH 6.0 affinity) [4]: 9.57e-07
48 | 15.9 | 533000 | 8.47e+06 | 1.88e-06 | mAb1 YTWN variant (M252Y/T307W) (antibody) | –
